US20200297842A1 (published 2020)
Numbering of substitutions follows the chain as printed.

B1: SIRP10 (antibody, V domains shown)
VH: EVQLQESGAELVRPGTSVKMSCKAAGYTFSNYLIGWIKQRPGHGLEWIGDIYPGDNNTNYNEKFRVKATLTADTSSNTAYMHLTSLTSEDSAIYYCAGGTDYDGFANWGQGTLVTVSA
VL: ENVLTQSPAIMSASLGEKVTMSCRASSSVNYMYWYQQKSDASPKLWIYYTSKLAPGVPARFSGSGSGNSYSLTISSMEGEDAATYYCQQFTSSPFTFGSGTKLEIK
B2: SIRP23 (antibody, human IgG4 S228P, kappa, V domains shown)
VH: EVQLQQSGPDLVKPGASVKISCKASGYSFTDYFLNWVKQSHGKSLEWIGRINPYNGDSFINQNFRDKATLTVDKSSTTAHMDLLSLTSEDSAIYYCGRGGYDGYFIAYFDYWGQGSLVTVSA
VL: DIKMTQSPSSMYASLGQRVTITCKASQDINSHLSWFQEKPGKSPKTLIYRANRLADGVPSRFSGSGSGQDYFLTISSLEYEDVGIYYCLQYDEFPYTFGGGTKLEIKR
B3: SIRP11 (antibody, human IgG4 S228P, kappa, V domains shown)
VH: QVQLVQSGAEVKKPGASVKVSCKASGYSFTDYFLNWVRQAPGQGLEWMGRINPYNGDSFINQNFRDRVTMTRDTSTSTVYMELSSLRSEDTAVYYCARGGYDGYFIAYFDYWGAGTTVTVSS
VL: DIQMTQSPSSLSASVGDRVTITCKASQDINSHLSWYQQKPGKAPKLLIYRANRLATGVPSRFSGSGSGTDFTFTISSLQPEDIATYYCLQYDEFPYTFGGGTKLEIKR
notes: shares the heavy-chain CDRs of SIRP4
B4: SIRP17 (antibody, human IgG4 S228P, kappa, V domains shown)
VH: EVQLVQSGAEVKKPGESLKISCKGSGYSFTDYFLNWVRQMPGKGLEWMGRINPYNGDSFINQNFRDQVTISADKSISTAYLQWSSLKASDTAMYYCARGGYDGYFIAYFDYWGAGTTVTVSS
VL: B3 VL
B5: SIRP12 (antibody, human IgG4 S228P, kappa, V domains shown)
VH: B3 VH
VL: B3 VL with Q79E, P80Y
B6: SIRP16 (antibody, human IgG4 S228P, kappa, V domains shown)
VH: B3 VH with A16S, M70I, R72A, T74K, V79A
VL: B3 VL with L89Q
B7: SIRP20 (antibody, human IgG4 S228P, kappa, V domains shown)
VH: B3 VH with R72V
VL: B3 VL
B8: SIRP13 (antibody, human IgG4 S228P, kappa, V domains shown)
VH: B3 VH
VL: B3 VL with L89Q
B9: SIRP14 (antibody, human IgG4 S228P, kappa, V domains shown)
VH: B3 VH with A16S, M70I, R72A, T74K, V79A
VL: B3 VL
B10: SIRP19 (antibody, human IgG4 S228P, kappa, V domains shown)
VH: B4 VH
VL: B3 VL with L89Q
B11: SIRP15 (antibody, human IgG4 S228P, kappa, V domains shown)
VH: B3 VH with A16S, M70I, R72A, T74K, V79A
VL: B3 VL with Q79E, P80Y
B12: SIRP21 (antibody, human IgG4 S228P, kappa, V domains shown)
VH: B3 VH with R72V
VL: B3 VL with Q79E, P80Y
B13: SIRP22 (antibody, human IgG4 S228P, kappa, V domains shown)
VH: B3 VH with R72V
VL: B3 VL with L89Q
B14: SIRP18 (antibody, human IgG4 S228P, kappa, V domains shown)
VH: B4 VH
VL: B3 VL with Q79E, P80Y
B15: SIRP6 (antibody, V domains shown)
VH: QIQLVQSGPELKKPGETVKISCKASGYTFTDYGVNWVKQGPGKDLQWMGWVNTNTRESTYVEDFKGRFAFSLETSASTAYLQINNLKNEDSSTYFCARGAYDAYYYYYGMDYWGQGTSVTVSS
VL: DIQMTQSPASLSASVGETVTITCRASENIYSYLTWYKQKQGKSPQLLVYNAKTLAEGVPSRFSGSGSGTQFSLKINSLQPEDFGSYYCQHHYGSPRTFGGGTKLEIK
B16: SIRP8 (antibody, V domains shown)
VH: EVQLQESGGGLVKPGGSLKLSCAASGFTLSTYTMSWVRQTPEKRLEWVAIITSGDTYTYYPDSVKGRFTISRDNAKNTLYLQMSSLKSEDTGMYYCTRDRPLFHWGQGTTLTVST
VL: QIVLTQSPAIMSASPGEKVTMTCSASSSVSYMYWYQQKPGSSPRLLIYDTSNLASGVPVRFSGSGSGTSYSLTISRMEAEDAATYYCQQWSSFPWTFGGGTKLEIK

Target: T1, Fc tagged human SIRPα (ACRO # SIG-H5251, genotype variant 1) (human, UniProt P78324 31-370, limits assumed)
T1 construct: Bought protein; also called Fc tagged human SIRP alpha; recombinant human SIRPα; not shown: Fc tag
Experiment: ELISA, plate-coated Fc tagged human SIRPα; apparent Kd
Method: The binding of anti-SIRP monoclonal antibodies (mAbs) of the present disclosure to SIRP alpha (SIRPα) was determined by solid phase ELISA using an Fc tagged human SIRP alpha. Binding by soluble anti-SIRP antibodies was measured in vitro.
Fc tagged human SIRPα (ACRO # SIG-H5251, genotype variant 1) is adsorbed to high-binding microtiter plates at a concentration of 1 μg/ml diluted in phosphate buffered saline (PBS) overnight at 4° C. The coating solution is removed, the wells are washed and then blocked with 75% casein in PBS containing 0.5% Tween 20 (PBST) for 60 minutes at room temperature while shaking. Blocking solution is removed, the wells are washed and incubated for 60 minutes at room temperature while shaking with either murine or human anti-SIRP mAbs diluted in PBST at a starting concentration of 30 μg/ml and reducing the concentration in 3-fold serial dilutions. Wells are washed three times with PBST and incubated for 60 minutes at room temperature while shaking with an HRP-labeled donkey anti-mouse or anti-human secondary antibody (Jackson ImmunoResearch Laboratories) diluted 1:10,000 in PBST. The wells are washed and then incubated with peroxidase substrate and the absorbance at 450 nm measured. The apparent affinities were calculated using a non-linear fit model (GraphPad Prism).

T1 sequence (P78324 31-370 limits assumed, change not shown, form in doubt): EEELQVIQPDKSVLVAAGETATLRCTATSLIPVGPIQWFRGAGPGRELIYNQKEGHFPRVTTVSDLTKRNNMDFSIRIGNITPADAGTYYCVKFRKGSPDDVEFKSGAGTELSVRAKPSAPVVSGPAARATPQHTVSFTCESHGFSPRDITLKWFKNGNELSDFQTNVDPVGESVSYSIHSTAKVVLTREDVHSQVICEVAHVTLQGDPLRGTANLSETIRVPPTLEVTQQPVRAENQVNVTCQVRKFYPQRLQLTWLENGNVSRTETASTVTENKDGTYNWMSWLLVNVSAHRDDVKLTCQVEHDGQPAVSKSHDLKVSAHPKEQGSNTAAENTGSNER

Kd | Binder
> 10 nM | B1
0.164 nM | B2
0.194 nM | B3
0.326 nM | B4
0.165 nM | B5
> 40 nM | B6
0.157 nM | B7
1.56 nM | B8
0.565 nM | B9
> 19 nM | B10
0.608 nM | B11
0.274 nM | B12
> 11 nM | B13
0.364 nM | B14
0.131 nM | B15
0.057 nM | B16

Target: T2, Fc tagged human SIRPγ (ACRO # SIG-H5253) (human, UniProt Q9P1W8 29-360)
T2 construct: Bought protein; it includes the transmembrane and cytoplasmic part, which a soluble Fc fusion would not carry; also called Fc tagged human SIRP gamma; recombinant human SIRP gamma; not shown: Fc tag
Experiment: blocking ELISA: mAb with human SIRPγ (ACRO # SIG-H5253) on plate-coated HIS tagged human CD47
Method: HIS tagged human CD47 (ACRO # CD7-H5227) is adsorbed to high-binding microtiter plates at a concentration of 2 μg/ml diluted in PBS overnight at 4° C. The coating solution is removed, the wells are washed and then blocked with 75% casein in PBS containing 0.5% Tween 20 (PBST) for 60 minutes at room temperature while shaking. Blocking solution is removed, the wells are washed and incubated for 60 minutes at room temperature while shaking with anti-SIRP mAbs diluted in PBST at a starting concentration of 30 μg/ml and reducing the concentration in 3 fold serial dilutions and 0.5 μg/ml of human SIRPγ (ACRO # SIG-H5253). Wells are washed three times with PBST and incubated for 60 minutes at room temperature while shaking with an HRP labeled donkey anti-mouse or anti-human secondary antibody (Jackson ImmunoResearch Laboratories) diluted 1:20,000 in PBST. The wells are washed and then incubated with peroxidase substrate and the absorbance at 450 nm determined. The IC₅₀ was calculated using a non-linear fit model (GraphPad Prism).

T2 sequence (Q9P1W8 29-360 limits assumed): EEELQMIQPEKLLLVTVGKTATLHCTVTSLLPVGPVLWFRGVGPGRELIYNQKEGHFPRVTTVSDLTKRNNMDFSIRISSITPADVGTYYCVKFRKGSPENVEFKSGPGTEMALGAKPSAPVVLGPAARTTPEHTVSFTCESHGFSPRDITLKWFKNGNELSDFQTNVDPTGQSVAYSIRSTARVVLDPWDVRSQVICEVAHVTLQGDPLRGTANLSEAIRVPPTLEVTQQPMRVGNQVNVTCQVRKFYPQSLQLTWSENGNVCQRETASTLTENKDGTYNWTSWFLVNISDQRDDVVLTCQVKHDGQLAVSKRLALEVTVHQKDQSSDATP

IC50 | Binder
0.86 nM | B15

Target: T2, Fc tagged human SIRPγ (ACRO # SIG-H5253)
Experiment: ELISA, plate-coated Fc tagged human SIRPγ; apparent Kd
Method: The binding of anti-SIRP antibodies of the present disclosure to SIRP gamma (SIRPγ) was determined by ELISA using an Fc tagged human SIRPγ. Binding by soluble anti-SIRP antibodies was measured in vitro.
(§1) Fc tagged human SIRPγ (ACRO # SIG-H5253) is adsorbed to high-binding microtiter plates at a concentration of 1 μg/ml in phosphate buffered saline (PBS) overnight at 4° C. The coating solution is removed, the wells are washed and then blocked with 75% casein in PBS containing 0.5% Tween 20 (PBST) for 60 minutes at room temperature while shaking. Blocking solution is removed, the wells are washed and incubated for 60 minutes at room temperature while shaking with anti-SIRP mAbs diluted in PBST at a starting concentration of 30 μg/ml and reducing the concentration in 3-fold serial dilutions. Wells are washed three times with PBST and incubated for 60 minutes at room temperature while shaking with an HRP labeled donkey anti-mouse or anti-human secondary antibody (Jackson ImmonResearch Laboratories) diluted 1:10,000 in PBST. The wells are washed and then incubated with peroxidase substrate and the absorbance at 450 nm determined. The apparent affinities were calculated using a non-linear fit model (GraphPad Prism).

Kd | Binder
> 10 nM | B1
0.225 nM | B2
7.22 nM | B3
> 15 nM | B4
> 12 nM | B5
> 29 nM | B7
> 14 nM | B11
> 21 nM | B12
> 34 nM | B14
0.183 nM | B15

Target: T2, Fc tagged human SIRPγ (ACRO # SIG-H5253)
Experiment: ELISA, plate-coated Fc tagged human SIRPγ
Method: as §1

binding result | Binder
no binding (tested: 30 µg/ml) | B8
no binding (tested: 30 µg/ml) | B9
no binding (tested: 30 µg/ml) | B10
no binding (tested: 30 µg/ml) | B13
no binding (tested: 30 µg/ml) | B16
